The text below walks through data of ChEMBL document CHEMBL1151754, “Structural and mechanistic studies of mofegiline inhibition of recombinant human monoamine oxidase B” (J Med Chem, 2008).

Substrate in this data set: NCCCCc1ccccc1
In words: Activity of human MAOB.

What is called kcat is the number of substrate molecules converted per active site and unit of time at saturation.

B1: Amine oxidase [flavin-containing] B (Homo sapiens) (protein)
chain: MSNKCDVVVVGGGISGMAAAKLLHDSGLNVVVLEARDRVGGRTYTLRNQKVKYVDLGGSYVGPTQNRILRLAKELGLETYKVNEVERLIHHVKGKSYPFRGPFPPVWNPITYLDHNNFWRTMDDMGREIPSDAPWKAPLAEEWDNMTMKELLDKLCWTESAKQLATLFVNLCVTAETHEVSALWFLWYVKQCGGTTRIISTTNGGQERKFVGGSGQVSERIMDLLGDRVKLERPVIYIDQTRENVLVETLNHEMYEAKYVISAIPPTLGMKIHFNPPLPMMRNQMITRVPLGSVIKCIVYYKEPFWRKKDYCGTMIIDGEEAPVAYTLDDTKPEGNYAAIMGFILAHKARKLARLTKEERLKKLCELYAKVLGSLEALEPVHYEEKNWCEEQYSGGCYTTYFPPGILTQYGRVLRQPVDRIYFAGTETATHWSGYMEGAVEAGERAAREILHAMGKIPEDEIWQSEPESVDVPAQPITTTFLERHLPSVPGLLRLIGLTTIFSATALGFLAHKRGLLVRV
Consider B1, for which the kcat was 1.82 s⁻¹.
